In PMC9276808, “Structural identification of riluzole-binding site on human TRPC5” (Cell Discovery, 2022):

Biological target: the molecule itself
Assay: cryo-EM structure; purified hTRPC5(1-764) supplemented with riluzole; single particle analysis, global resolution 2.4 Å

B1: truncated functional human TRPC5 (hTRPC5_(1–764)) (domain or fragment, UniProt Q9UL62 1-764, looked up)
chain: MAQLYYKKVNYSPYRDRIPLQIVRAETELSAEEKAFLNAVEKGDYATVKQALQEAEIYYNVNINCMDPLGRSALLIAIENENLEIMELLLNHSVYVGDALLYAIRKEVVGAVELLLSYRRPSGEKQVPTLMMDTQFSEFTPDITPIMLAAHTNNYEIIKLLVQKRVTIPRPHQIRCNCVECVSSSEVDSLRHSRSRLNIYKALASPSLIALSSEDPILTAFRLGWELKELSKVENEFKAEYEELSQQCKLFAKDLLDQARSSRELEIILNHRDDHSEELDPQKYHDLAKLKVAIKYHQKEFVAQPNCQQLLATLWYDGFPGWRRKHWVVKLLTCMTIGFLFPMLSIAYLISPRSNLGLFIKKPFIKFICHTASYLTFLFMLLLASQHIVRTDLHVQGPPPTVVEWMILPWVLGFIWGEIKEMWDGGFTEYIHDWWNLMDFAMNSLYLATISLKIVAYVKYNGSRPREEWEMWHPTLIAEALFAISNILSSLRLISLFTANSHLGPLQISLGRMLLDILKFLFIYCLVLLAFANGLNQLYFYYETRAIDEPNNCKGIRCEKQNNAFSTLFETLQSLFWSVFGLLNLYVTNVKARHEFTEFVGATMFGTYNVISLVVLLNMLIAMMNNSYQLIADHADIEWKFARTKLWMSYFDEGGTLPPPFNIIPSPKSFLYLGNWFNNTFCPKRDPDGRRRRRNLRSFTERNADSLIQNQHYQEVIRNLVKRYVAAMIRNSKTHEGLTEENFKELKQDISSFRYEVLDLLGNR
notes: The sample was supplemented with riluzole, and Ca2+, DAG and lipids are seen in the map; also called transient receptor potential canonical subfamily member 5; source: purified
With B1 the “stoichiometry N” value was 4.
